Data on 2 substances can be found in paper PMC7887190.

This assay deals with YB1 (UniProt P67809). Kind of assay: reciprocal co-IP (anti-YB1, anti-WAVE3), blot.

In the case of WAVE3 (from UniProt Q9UPY6) W3-Y4F, where the note is “reference: wild-type WAVE3 (W3-WT), sites Y151,Y248,Y337,Y486”, the “binding against the reference” value is listed as “lost”.

With “WAVE3 proline-rich domain (PRD) (from UniProt Q9UPY6) PRD-DM (Y248F/Y337F)”, the “binding against the reference” value (reference: PRD-WT (GFP fusion), sites Y248,Y337) is “weaker”.
